This note sets out measurements from article PMC9007595 (Molecular microbiology, 2020).

Holding throughout (assay): cross-linking
Experiment [1] concerns the target Mycobacterium tuberculosis HtpG-His6 with para-benzoyl-phenylalanine at F635 (Mycobacterium tuberculosis) (UniProt P9WMJ7).
The target of experiment [2] is Mycobacterium tuberculosis HtpG-His6 with para-benzoyl-phenylalanine at F10 (Mycobacterium tuberculosis) (UniProt P9WMJ7).
Experiment [3] deals with Mycobacterium tuberculosis HtpG-His6 with para-benzoyl-phenylalanine at W197 (Mycobacterium tuberculosis) (UniProt P9WMJ7).

As a reminder, the stoichiometry N is a count of units in the complex or per binding partner. In turn, “Mycobacterium tuberculosis HtpG-His6 with para-benzoyl-phenylalanine at F635 (from UniProt P9WMJ7 1-647) (natural protein)” came in with a stoichiometry N in experiment [1] of 2. Turning to “Mycobacterium tuberculosis HtpG-His6 with para-benzoyl-phenylalanine at F10 (from UniProt P9WMJ7 1-647) (natural protein)”, the stoichiometry N in experiment [2] was found to be 2. In experiment [3], “Mycobacterium tuberculosis HtpG-His6 with para-benzoyl-phenylalanine at W197 (from UniProt P9WMJ7 1-647) (natural protein)” had a stoichiometry N of 2.
